This is an account of results in the nanobody polyreactivity screen of Harvey et al. (2022).

This series in a line: yeast display, Sf9 membrane polyspecificity reagent, FACS + sequencing; frameworks hold sequencing errors. In a few lines:
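Genes from sorted yeast were amplified by colony PCR, read by MiSeq 2 × 250 sequencing and filtered on CDR length. These cells carried a synthetic nanobody library in Saccharomyces cerevisiae BJ5465 and were sorted by FACS into low and high (top ~1%) gates on anti-HA and streptavidin fluorescence. Polyreactivity is labelled according to the gate of origin.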
As for “QVQLVESGGGLVQAGGSLRLSCAASGRTFYFYAMGWYRQAPGKERELVASITSSGGNTYYADSVKGRFTISRDNAKNTVYLQMNSLKPEDTAVYYCAARWFPWLQWKRYDYWGQGTQVTVSS”, the “polyreactivity (PSR sort gate)” value is on record as “low polyreactivity”.
For the sequence “QVQLVESGGGLVQAGGSLRLSCAACGSTFDVNARGWYRQAPGKERELVAAISWSDDDTYYADSVKGRFTISRDNAKNTDYLQKHSLKPEDTAVYYCAADGRYGWYYGVYNGEDYWGQGTQVTVSS”, the “polyreactivity (PSR sort gate)” value was “high polyreactivity”.
In the case of “QVQLEESGGGLVQAGASLRLSCDASGSIFKKYAMGWYRPAPGKEWELVPAITRGTYYADSVKGRFTISRDNAKNTVYLQMNSLKPEDTAVYYCNREFWGRGYYRVRGEYDYWGQGTQVTVSS” it was “low polyreactivity”; in that of “QVQLVESGGGLDQAGGSLRLSCAASGFIFPGNAMGWYRQAPGKERELVAAISWRVGRTYYADSVKGRFTISRDNAKNTVYLQMNSLKPEDTAVYYCAVARSSPEYYYWGQGTQVTVSS”, “high polyreactivity”.
In the case of “QVQLVESGGGLVQAGGSLRLSCAASGLIFHRNAMGWYRQAPGKERELVAAITKTGGGTYYADSVKGRFTISLDNAKNTVYLQMNSLKPEDTAVYYCAADTQRTFYYWGQGTQVTVSS” it was “low polyreactivity”; in that of “QVQLVESGGGLVQAGGSLRLSCAASGNIFYVYAMGWYRQAPGKERELVATITWRGGNTYYADSVKGRFTISRDNAKNTVDLQMNSLTPEDTAVYYCAAYVGYTRAYIGQFYAYDYWGQGTQVTVSS”, “low polyreactivity”.
For the sequence “QVQLVESGGGLVQAGGSLRLSCAASGSTFNGYAMGWYRQAPGKERELVAAISKRGGSTYYADSVKGRFTISRDNEKNTVYLQMNSLKPEDTAVYYCAARNPTQYLMDYWGQGTQVTVSS”, the “polyreactivity (PSR sort gate)” value is on record as “high polyreactivity”.
On to “QVKLVDSGGGLVQAGGSLRLSCAASGRIAVNAMGWYRQAPGKERELVAAISVSGGSTNYADSVKGRFTISRDNAKNTVYLQMNSLKPEDTAVYYCAARAFDPILRNDYSGQGTQVTVSS”, for which the “polyreactivity (PSR sort gate)” value was “low polyreactivity”.
In the case of “QVQLVESGGGLVLAGGSLRLSCAASGRIYVFYAMGWYRQAPGKEREFVATISYSGDTTYYADSVKGRFTISRDNAKNTVYLQMNSLTPEDTAVYYCAADQVPSYYYVPLGYDSWGQGTQVTVSS” it was “low polyreactivity”; in that of “QVQLVESGGGIVQAGGSLRLSCAASGFTFAYYAMGWYRQAPGKERELVAAITRGGGRTFYADSVKGRFTISRDNAKNTVYLQMNSLKPEDTAVYYCAAVKDTTNSRGYGYWGQGTHVTVSS”, “high polyreactivity”.
For the sequence “QVQLVESGGGLVQAGGSLRLSCAASGRTFGYYTMGWYRQAPGKERELVATITSSGGSTYYADSVKGRFTISRDNAKNTVYLQMNSLKPEDTAVYYCAARRKQGAYDYWGQGTQVTVSS”, the “polyreactivity (PSR sort gate)” value is listed as “high polyreactivity”.
In the case of “QVQLVESGGGLVQAGGSLRLSCAASGSIFPWYAMGWYRQAPWKERELVAGISSGGGTNYADSVKGRFTISRDNAKNTVYLQMNSMKPEDTAVYYCNADYFGGGDYWGQGTQVTVSS” it was “low polyreactivity”; in that of “QVQLVESGGGLVQAGGSLRLSSAASGRIFLRNALGWYRQAPGKERESVAAITRGGSTNYADSVKGRFTISRDNAKNTVYLQMNSLKPEDTAVYYCNARYPVVRYDYWGQGTQVTVSS”, “high polyreactivity”; in that of “QVQLVESGGGLVQAGGSLRLSCAASGSTFYYYAMGWYRQAPGKERELVASISGGGSTSYADSVKGRFTISRDNAKNTVYLQMNSLKPEDNAVYYCNADPSEYDPNYVVVFSPQKYDYCGQGTQVTVSS”, “low polyreactivity”.
The entry for “QVQLVESGGGLVQAGGSLRLSCAASGFTFPVYAMGWYRQAPGKERELVAAITYNGGSTYDADSVKGRFTISRDNAKHTVYFQMNSLKPEDTAVSYCAAEVFLRSLGYWYDYWGQGTQVTVSS” is “high polyreactivity”; for “QVQLVESGGGLVQAGGSLRLSCAASGRTFGTYAMGWYRQEPGKERELFATISSGGSTYYADSVKGRFTISRDNAKNTVYLLMNSLKPEDTAVYYCAAYRYFRPGDYWGQGTQVNVSS” it is “low polyreactivity”.
In the case of “QVQLVESGGGLVQAGGSLRLSCAASGSSFSHYAMGWYRQAPGKVRELVAGISVRGGSTYYADSVKGRFTISRDNAKNTVDLQMNSLKPEDTAVYYCAIGYAKYYRTYYYWGQGTQVTVSS” it was “high polyreactivity”.
Take “QVQLVESGGGLVQAGGSLRLSCAASGITFWGYAMGWYRQAPGKEREFVARINWSGGRTYYAESVKGRFTISRDNAKNTVYLQMNSLKPEDTAVYYCNVVLRSVVSGDYWVQGTQVTVSS”: the “polyreactivity (PSR sort gate)” value is “high polyreactivity”.
For “QVQLVESGGGLVQAGGSLRLSCAASGSIFGRNAMGWYRQAPGKEREIVAAISQRGGRTYYADSVKGRFTISRDNAKNTVYLQMNRLKPEDTAVYYCAATYTRVPNRFYYWGQGTQVTVSS”, the “polyreactivity (PSR sort gate)” value was “high polyreactivity”.
With “QVQLVESGGGLDQAGGSLRLSCAASGLTFGTYPMGWYRQAPGKETELVAAIRSGGSTNYADSVKGRFTISRDNAKNTVYLQMNSLKPEDTAVYYCNSVTVYYRKYEFWGQGTQVTVSS”, the “polyreactivity (PSR sort gate)” value is “high polyreactivity”.
As to “QVQLVESGGGLVQAGGSLRLSCAASGRIFNNYAMGWYRQAPGKERELVASITSGGSTNYADSVKGRFTISRDNAKNTVYLHMNSLKPEDTAVYYCNAPRGNRYHTGGYWGQGTQVTVSS”, the “polyreactivity (PSR sort gate)” value is reported as “low polyreactivity”.
Regarding “QDQLVESGGGLVQAGGSLRLSCAASGFTFVYNAMGWYRQAPGKERELVAAITSGGNTYYADSVKGRFTISRDNAKNTVYLQMNSLKPEDTAVYYCAADRFTVRMDYWGQGTQVTLSS”, the “polyreactivity (PSR sort gate)” value is listed as “high polyreactivity”.
The entry for “QVQLVESGGGLVQAGGSLRLSSAASGFTFVNYAMGWYRQAPGKERELVAAITRGGSTYYADSVKGRFTISRDNAKNTVYLNMNSLIPEDTAVYYCSARYFYLFRPTEYYYWGQGTQVTVSS” is “high polyreactivity”.
As to “QVQLVESGGGLVHAGGSLRLSCAASGGTFTYYTMGWYRKAPGKERELVARISKNGGRTYYADSVKGRFTLSRDNAKNTLYLKMISLKPEDTAVYYCNAAGRPYDFSGGRTMEYWGQGTQVTVST”, the “polyreactivity (PSR sort gate)” value is listed as “high polyreactivity”.
In the case of “QVQLVESGGGLVQAGGSLRLSCDASGRIFTTYAMGWYRQAPGKERELVARITWSAGRTYYADSVKGRFTISRDNAKNTVYLQMNSLKPEDTAVYYCAADGGISAGANSGYDYWGQGTQVTVSS” it was “high polyreactivity”; in that of “QVQLVESGGGLVQAGGSLRLSCAASGSTFYVYAMGWYRQAPGKVREFVATISTSGAITYYADSVKGRFTISRDNAKNTVYLQMNSQKPEDTAVYYCARSGSLLSQVWYNYWGQGTQVTVTS”, “low polyreactivity”.
The entry for “QVQLVESGGGLVQAGGSLRLSCAASGSTFYKYAMGWYRQAPGKERELVAAISASGGSTYYADSVKVRFTISRDNAKNTVYLQMNSLNPEDTAVYYCAKASAYSAYADHDYYWGQGTQVTVSS” is “high polyreactivity”; for “QVQLVESGGGLVQAGGSLRLSCAASGLTFDWYTKGWSRQAPGKERELVATINSGGSTDYADSVKGRFTISRDNAKNTVYLQLNSLKPEDTAVYYCNAEYGYSGVGDDYWGQGTQVTVSS” it is “low polyreactivity”; for “QVQLVESGGGLVQAGGSLRLSCAASGITFTAYAMGWYRQAPGKEREFVAVITRSGGSTYYADSVKGRFTISRDNAKNTVYLQMNSLKPEDTAVYYCAAETSYRYGWYYYWGQGTQVTVSS” it is “high polyreactivity”.
On to “QVQLVESGGGLVQAGGSLRLSCAASGSTSALYAMGWYRQAPGKERELVATITRSGTTKYADSVKGRFTISRDNAKNTVYLQMNSLKPEDTAVYYCNTDTYFPLYDYWGQGTQVTVSS”, for which the “polyreactivity (PSR sort gate)” value is “low polyreactivity”.
For “QVELVESGGGLVQPGGRLRLSCAASGFTFNYYAMGWYRQAPGKEREFVAAISRGGGRTYYADSVKGRFTISRDNAKNTVYLQMNSLKPEDTAVYYCAAQSVPYAYRLASYDYWGQGTQVTVSS”, the “polyreactivity (PSR sort gate)” value was “high polyreactivity”.
As to “QVQLVESGGGLVQAGGSLRLSCAASGNILYANAMGWYRQAPGKERELVATINVSADSTYADSVKGRFTISRDNAKNTVYLQMNRLNPEDTAVYYCNAYGLYEKWGPWTVPYYYWGQVTQVTVSS”, the “polyreactivity (PSR sort gate)” value was “low polyreactivity”.
The entry for “QDQLVESGGGLVQAGGSLRLSCAASGSTFTFYVMGWYRQAPGKERELVAAITASGGSTYYADSVKGRFTISRDNAKNTVYLQMNSLKPEDTAVYYCAARPTYYYSRTYDYWGQGTQVTVSS” is “low polyreactivity”.
In the case of “QVQLVESGGGLVQAGGSLRLSCAASGSIFSVYAMGWYRQAPGKERELVAAIDFSGGSTYYADSVKGRFTISRDNPKNTVYLQMNSLKPEDTAVYYCAAEYLPYPEYEYDYWGQGTQVTVSS”, the “polyreactivity (PSR sort gate)” value is given as “low polyreactivity”.
In the case of “QLQLVESGRGLVQAGGSLRISCDASGSTFRRNAMGWYRPAPGKERELVAAITRGGGSTYYADSVKGRLTISRDNAKNTVYLQMNSLKPDDTAVYYCAAQISATRETMDYWGQGTQVTVSS” it was “high polyreactivity”; in that of “QVQLVESGGGLVQAGGSLRLSCAASGIIFQNYDMGWYRQAPGKERELVAAITSGVSTYYADSVKGRFTIARYNAKNTVYLQMNSLKPEDTAVYYCAVVGGFRWIRMEYWGQGTQVTVSS”, “low polyreactivity”; in that of “HVQRVDSGAGLVQPRCSLRISCAASGNTFKQYAMGWYRQAPGKDRELVAAIRRSGSTYYADSVKGRFTISRDNAKYTVYLEMNSLKPEDPAVYYCNARIYRLYSTYSWTRYDYWGQGTQVTVSS”, “high polyreactivity”.
In the case of “QVQLVESGGRLVQAGGSLRLSCAASGRIFTGSNVMGWYRQAPGKEREFVAVINSGGGSTYYADSVKGRFTISRDNAKNTVYLQMNSLKPEDTAVYYCAADVGGWGYYDWVQGTQVTVSS”, the “polyreactivity (PSR sort gate)” value was “low polyreactivity”.
The entry for “QVQLVESGGGLVQAGGSLRLSCAASGSIFNVYAMGWYRQAPGKERELVAAISDGDGSTFYADSVKGRFTISRDNAKNTVYLQMNSLKPEDTAVYYCAKDYRWDSKFDYWGQGTQVTVSS” is “low polyreactivity”; for “QVQLVESGVGLVQAGGSLRLTCAASGSIFSVYAMGWYRPAPGKESELVAAITSSGGLTYYADSVKGRITISRDYAKNSVYLQMTSLIPEDTAVYYCATRGIPDDIARDYWGLGTQVTVSS” it is “low polyreactivity”; for “QVQLVESGGGLVQAGGSLRLSCAASGSIFGYYAMGWYRQAPGKEREFVAAITSRVGRTHYADSVKGRFTISRDNAKNTVYLQMNSLKPEDTAVYYCAAEVRQYYRRGYYWGQGTQVTVSS” it is “high polyreactivity”.
